The results in this text go back to patent publication US20100233079A1 (AbbVie / Abbott, published 2010).

Assay [1] concerns the target T1, rhIL-13 (recombinant human IL-13) (human, UniProt P35225 35-146, limits assumed). Briefly: cell-based or functional assay.
The target of assay [2] is T1, rhIL-13 (recombinant human IL-13). Briefly: SPR (Biacore 3000), mAb captured by anti-human IgG Fc, antigen in solution. From the text:
Unreacted moieties on the biosensor surface were blocked with ethanolamine. Modified carboxymethyl dextran surface in flowcell 2 and 4 was used as a reaction surface.

For assay [3], the target named is T2, NRP1 (Neuropilin-1 Npn-1-His tag) (UniProt O14786-2 22-644, limits assumed).
T2 construct: Bought antigen with a His tag
In words: direct bind ELISA, antigen on plate. The protocol: Enzyme Linked Immunosorbent Assays to screen for antibodies that bind a desired target antigen were performed as follows. […] Plates were washed four times with PBS containing 0.02% Tween 20. […] Plates were washed four times after blocking with PBS containing 0.02% Tween 20.
One hundred microliters of 10 ng/mL goat anti-human IgG-FC specific HRP conjugated antibody (Southern Biotech #2040-05, Birmingham, Ala.) was added to each well of the desired target antigen plate or anti-polyHistidine antibody/Histidine tagged desired target antigen plate. Alternatively, one hundred microliters of 10 ng/mL goat anti-human IgG-kappa light chain specific HRP conjugated antibody (Southern Biotech #2060-05 Birmingham, Ala.) was added to each well of the desired target antigen/FC fusion plate and incubated for 1 hour at room temperature. Plates were washed 4 times with PBS containing 0.02% Tween 20.

T1 sequence (P35225 35-146 limits assumed): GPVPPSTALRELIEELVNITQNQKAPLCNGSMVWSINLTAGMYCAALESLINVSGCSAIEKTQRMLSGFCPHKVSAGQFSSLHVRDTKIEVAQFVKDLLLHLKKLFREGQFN

B1: 13C5.5 (antibody, V domains shown)
VH: EVTLRESGPGLVKPTQTLTLTCTLYGFSLSTSDMGVDWIRQPPGKGLEWLAHIWWDDVKRYNPALKSRLTISKDTSKNQVVLKLTSVDPVDTATYYCARTVSSGYIYYAMDYWGQGTLVTVSS
VL: DIQMTQSPSSLSASVGDRVTISCRASQDIRNYLNWYQQKPGKAPKLLIFYTSKLHSGVPSRFSGSGSGTDYTLTISSLQPEDIATYYCQQGNTLPLTFGGGTKVEIKR
notes: Monoclonal antibody; also called AB231
In the case of B1, the “IC50 (nM), A549 bioassay (IL-13 induced TARC)” value in assay [1] stood at 0.2 nM. The Kd in assay [2] is 0.15 nM.

B2: 13C5.5L3F (antibody, V domains shown)
VH: EVTLRESGPGLVKPTQTLTLTCTLYGFSLSTSDMGVDWIRQPPGKGLEWLAHIWWDDVKRYNPALKSRLTISKDTSKNQVVLKLTSVDPVDTATYYCARTVSSGYIYYAMDYWGQGTLVTVSS
VL: DIQMTQSPSSLSASVGDRVTISCRASQDIRNYLNWYQQKPGKAPKLLIFYTSKLHSGVPSRFSGSGSGTDYTLTISSLQPEDIATYYCQQGLTPPLTFGGGTKVEIKR
notes: Monoclonal antibody; also called AB232
As for B2, the “IC50 (nM), A549 bioassay (IL-13 induced TARC)” value in assay [1] came to 0.31 nM. Moreover, in assay [2], the Kd turned out to be 0.24 nM.

B3: AB016 (antibody, V domains shown)
VH: EVQLVESGGGLVQPGGSLRLSCAASGFSFSSEPISWVRQAPGKGLEWVSSITGKNGYTYYADSVKGRFTISADTSKNTAYLQMNSLRAEDTAVYYCARWGKKVYGMDVWGQGTLVTVSS
VL: DIQMTQSPSSLSASVGDRVTITCRASQSISSYLAWYQQKPGKAPKLLIYGASSRASGVPSRFSGSGSGTDFTLTISSLQPEDFATYYCQQYMSVPITFGQGTKVEIKR
notes: Parent antibody
As to B3, the EC50 in assay [3] came out at 0.28 nM.
